Data as given in patent US20240174763A1 (NOVOPROTEIN SCIENTIFIC, published 2024).
Changes are numbered by the printed parent chain.

Tests used:
[1] = target: T1, human CD73 on SK-OV-3 cells (human ovarian adenocarcinoma cells) (human, UniProt P21589 27-549); assay: cell-based or functional assay
T1 sequence (looked up): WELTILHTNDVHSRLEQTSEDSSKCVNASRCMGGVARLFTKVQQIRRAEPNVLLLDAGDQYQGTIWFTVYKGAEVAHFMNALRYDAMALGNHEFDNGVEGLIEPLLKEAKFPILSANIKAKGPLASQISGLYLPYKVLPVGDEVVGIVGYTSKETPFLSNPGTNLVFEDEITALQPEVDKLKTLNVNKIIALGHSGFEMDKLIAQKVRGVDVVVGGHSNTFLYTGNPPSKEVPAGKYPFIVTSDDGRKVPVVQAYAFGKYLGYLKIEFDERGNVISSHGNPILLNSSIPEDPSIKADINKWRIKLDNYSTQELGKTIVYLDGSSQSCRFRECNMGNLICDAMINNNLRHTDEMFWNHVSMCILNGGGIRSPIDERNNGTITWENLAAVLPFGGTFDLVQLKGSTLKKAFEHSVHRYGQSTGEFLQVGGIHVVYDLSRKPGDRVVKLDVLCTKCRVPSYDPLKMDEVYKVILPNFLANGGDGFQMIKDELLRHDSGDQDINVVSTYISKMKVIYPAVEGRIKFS

[2] = target: T2, monkey CD73 on CHOK1-cynoCD73 cells (monkey, UniProt A0A2K5V5U7 27-549, GPI anchor at the C-terminus of the mature chain (paragraph 3 says CD73 is GPI-anchored). The propeptide 550-574 is removed.); assay: cell-based or functional assay
T2 sequence: T1 sequence (looked up) with M199T, T350A, V466I

[3] = target: T1, human CD73 on SK-OV-3 cells (human …); assay: flow cytometry on SK-OV-3 cells
Method: 4×10⁵ cells SK-OV-3 were taken, triple gradient (0.009-20 μg/ml) dilution of CQ137 protein was added, incubated for 1 h, washed three times with PBS, Anti-hFC-APC (purchased from Jackson immunology) was added, and detected by flow cytometry.

[4] = target: T2, monkey CD73 on CHOK1-cynoCD73 cells; assay: flow cytometry on CHOK1-cynoCD73 cells
Method: The full length of monkey CD73 was constructed on a eukaryotic expression vector containing NEO resistance, CHO-K1 cells were transfected, G418 was used for screening to obtain a CHOK1-cynoCD73 cell strain. 4×10⁵ CHOK1-cynoCD73 cells were taken and a gradient diluted CQ137 protein was added, after incubation was performed for 1 h, the cells were washed with PBS for three times, […] (purchased from Jackson Immunology) was added, and detected by flow cytometry.

[5] = target: T3, recombinant monkey CD73 protein (monkey, UniProt A0A2K5V5U7 27-549); assay: ELISA, plate coated with recombinant monkey CD73 at 3 µg/mL
T3 construct: Monkey species not further named for the recombinant protein (the cell line is called cynoCD73)
T3 sequence: T1 sequence (looked up) with M199T, T350A, V466I
Method: (§1) The recombinant monkey CD73 protein was packaged in plates according to a 3 μg/mL and a gradient diluted CQ137 was added.

[6] = target: T3, recombinant monkey CD73 protein; assay: ELISA, recombinant monkey CD73 coated at 3 ug/mL
Method: as §1

[7] = target: T4, recombinant human CD73 protein (human, UniProt P21589 27-547, limits assumed); assay: Biacore (SPR), CQ137 immobilised, CD73 protein 2.5 nM-40 nM
T4 construct: Bought recombinant protein; the assays only say recombinant human CD73; also called rhCD73; recombinant hCD73 protein
T4 sequence (looked up): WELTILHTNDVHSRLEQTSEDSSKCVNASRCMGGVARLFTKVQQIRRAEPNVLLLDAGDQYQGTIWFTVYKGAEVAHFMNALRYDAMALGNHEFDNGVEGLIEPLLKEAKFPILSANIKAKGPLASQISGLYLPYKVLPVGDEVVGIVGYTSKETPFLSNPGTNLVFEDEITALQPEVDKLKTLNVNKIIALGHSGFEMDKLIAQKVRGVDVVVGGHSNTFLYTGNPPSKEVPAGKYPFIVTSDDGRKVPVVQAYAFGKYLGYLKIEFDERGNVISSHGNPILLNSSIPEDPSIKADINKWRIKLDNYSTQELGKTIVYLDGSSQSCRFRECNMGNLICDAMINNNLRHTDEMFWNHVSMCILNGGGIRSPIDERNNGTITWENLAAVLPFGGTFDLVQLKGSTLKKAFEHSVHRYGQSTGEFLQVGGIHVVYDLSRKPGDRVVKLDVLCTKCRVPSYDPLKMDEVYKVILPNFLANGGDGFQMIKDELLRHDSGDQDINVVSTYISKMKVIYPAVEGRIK
Method: The affinity of CQ137 to recombinant hCD73 protein was determined by Biacore, CQ137 was cured.

B1: CQ137 antibody protein (human mouse chimeric anti-CD73 full-length antibody) (antibody, human IgG1, kappa, V domains shown)
VH: EVQLQQSGPELVKPGASVKISCKASGYSFTGYYIHWVKQSHVKSLEWIGRINPYNGATTYNQNFKDKASLTVDKSSSTAYMELHSLTSEDSAVYYCARFHYGAPDYWGQGTTLTVSS
VL: DILMTQSPSSMYASLGERVTITCKASQDINTYLTWFQQKPGKSPKTLIYRANILVDGVPSRFSGSGSGQDYSLTISSLEFEDMGIYYCLQYDEFPLTFGAGTKLELKR
[1]
  IC50 of inhibition of CD73 enzyme activity on SK-OV-3 cells: 371 ng/mL
[2]
  IC50 of inhibition of CD73 enzyme activity on CHOK1-cynoCD73 cells: 990 ng/mL
[3]
  EC50: 0.588 ng/mL
[4]
  EC50: 0.0999 ng/mL
[5]
  EC50: 217 ng/mL
[6]
  EC50 (read off the curve): ~200 ng/mL
[7]
  Kd: 86.5 pM
  koff: 6.04e-05 s⁻¹
  kon: 698000 M⁻¹ s⁻¹
